Measurements from patent US20260209365A1, “ANTI-COMMON GAMMA CHAIN PROTEINS AND COMPOSITIONS OF MATTER” (SINOMAB BIOSCIENCE LIMITED, priority 2023, published 2026).
Numbering of substitutions follows the chain as printed.

How the values were obtained:
[1] = system: granzyme and IFNγ secretion; experiment: Secretion of granzymes and IFNγ from PBMC culture, ELISA; assay type: cell-based, human; conditions: IL-2 or IL-15, 33 nM, humanized antibodies
Method: Activation of T and NK cells in the PBMC culture could be studied by granzyme and IFNγ secretion [Carlin et al., Blood., 2005; 106 (12): 3874-9; Grossman et al., Blood., 2004; 104 (9): 2840-8; Keppel et al., J Immunol., 2015; 194 (4): 1954-1962; Tamang et al., Cytokine., 2006; 36 (3-4): 148-59]. Similar results are obtained in-house that IL-2 and IL-15 but not IL-21 could trigger secretion of granzyme A and IFNγ in PBMC culture (FIG. 15A-B).
Antibodies or ritlecitinib were added into the PBMC culture to investigate their inhibitory effects in the presence of IL-2 or IL-15 treatment.
Releases of cytolytic agents from PBMC culture were further evaluated by ELISA assays.

γc proteins from human = biological target: T1, γc proteins from human (Homo sapiens, UniProt P31785); experiment: ELISA binding of full-length antibodies to human γc; conditions: humanized antibodies with back-mutation
T1 construct: extracellular domain of human γc protein (amino acids: 1-262); host or cells: Expi-CHO (e.g.)
T1 sequence (P31785 23-262): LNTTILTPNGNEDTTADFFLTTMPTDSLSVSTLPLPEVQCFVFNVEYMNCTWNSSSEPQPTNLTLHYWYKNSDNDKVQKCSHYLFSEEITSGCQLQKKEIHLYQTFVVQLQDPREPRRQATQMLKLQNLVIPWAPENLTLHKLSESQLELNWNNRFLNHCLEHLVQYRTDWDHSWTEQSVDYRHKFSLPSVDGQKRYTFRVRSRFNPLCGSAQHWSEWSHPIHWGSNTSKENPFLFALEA
Method: (§1) Selected clones of full-length antibodies were evaluated by ELISA to access the binding specificity. The binding activities of full-length anti-γc antibody were investigated using γc proteins (extracellular domain) from human (SEQ ID NO: 205-206), cynomolgus (Sequence ID: XP_005593949.1, SEQ ID NO: 207-208) and chimpanzee (Sequence ID: XP_008971810.1, SEQ ID NO: 209-210) either purchased from Sino Biological or in-house generated.
(§2) Humanized antibodies with back-mutation (hSM-05A and hSM-05E) were tested in the following assays. Binding affinities were investigated in the ELISA assays.

IL-15 induced p-STAT5 = experiment: Suppression of p-STAT in PBMC, IL-15; assay type: cell-based, human; conditions: antibody 10 μg/ml, compared to isotype control
Method: (§3) Given numbers refer to the percentage of inhibition compared to isotype control stimulated with respective γc cytokine. Antibody concentration is 10 μg/ml.

human γc protein = biological target: T2, human γc protein (Homo sapiens, UniProt P31785); experiment: Competition assay on Ramos B cells, flow cytometry; assay type: binding; conditions: unconjugated hSM-05A then FITC-conjugated hSM-05E, 33 nM
T2 construct: endogenous in cells; host or cells: Ramos B cells
T2 sequence (P31785 23-369): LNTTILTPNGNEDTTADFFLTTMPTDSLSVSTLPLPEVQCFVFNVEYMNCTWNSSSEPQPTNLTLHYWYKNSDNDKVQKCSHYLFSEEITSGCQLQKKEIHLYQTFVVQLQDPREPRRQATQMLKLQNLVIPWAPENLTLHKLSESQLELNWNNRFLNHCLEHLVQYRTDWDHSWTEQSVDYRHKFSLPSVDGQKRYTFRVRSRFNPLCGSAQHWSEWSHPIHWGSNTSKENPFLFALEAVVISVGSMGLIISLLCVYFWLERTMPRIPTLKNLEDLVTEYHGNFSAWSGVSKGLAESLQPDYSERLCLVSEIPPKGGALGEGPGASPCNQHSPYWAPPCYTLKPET
Method: Purified anti-γc antibodies were conjugated to FITC fluorescent dye and used for the competition assay. In brief, human γc expressing Ramos B cells were first labelled with unconjugated hSM-05A for an hour before further incubation with FITC-conjugated hSM-05E.

Ramos B cells = experiment: WST-8 proliferation assay, IL-4/IL-21 rescue of anti-IgM induced cell death; assay type: cell-based, human; conditions: humanized antibodies; 33 nM (5 μg/ml); vs ritlecitinib
Method: The effects of anti-γc antibodies in blocking IL-4 and IL-21 rescues of Ramos cell death after anti-IgM induced hyperactivation were investigated by WST-8 proliferation assay. In brief, Ramos cells (50000 cells in 100 l) were seeded into 96-well plate and stabilized at 37° C. for an hour. Cells were pretreated in anti-γc antibodies or ritlecitinib for an hour, followed by incubation of IL-4 (10 ng/ml) or IL-21 (10 ng/ml) and anti-IgM (2 ug/ml, #109-006-129, Jackson ImmunoResearch). Aft er 48 hours, 10 μl WST-8 reagent (ab228554, Abcam) was added to each well and incubated for 4 hours.
WST-8 could be reduced by cellular dehydrogenases to an orange formazan product, which the amount of formazan produced is directly proportional to the number of living Ramos cells. Optical density (OD) of each well was measured by absorbance at 450 nm using Varioskan LUX Multimode Microplate Reader (ThermoFisher Scientific).

IL-7 induced p-STAT5 = experiment: Suppression of p-STAT in PBMC, IL-7; assay type: cell-based, human; conditions: antibody 10 μg/ml, compared to isotype control
Method: as §3

HaCaT cells [2] = experiment: CDC assay on HaCaT cells with complement; assay type: cell-based, human; conditions: 33 nM (5 μg/ml), vs isotype antibody
Method: (§4) γc expressing human keratinocyte HaCaT cell line was utilized as the target cells in ADCC and CDC assays. To determine the ADCC activity, HaCaT cell was pre-binded with anti-γc antibodies before co-culture with human PBMC. To determine the CDC activity, HaCaT cell was pre-binded with anti-γc antibodies before incubation with low-endotoxin complement proteins extracted from guinea pig. ADCC was determined by percentage of PI+ HaCaT cells in flow cytometry analysis while CDC was measured by the WST-8 proliferative assay of HaCaT cells in a 96-well plate (FIG. 22A).

[3] = system: γc proteins from chimpanzee; experiment: ELISA binding of full-length antibodies to chimpanzee γc; parameters: species or system chimpanzee (Pan troglodytes); conditions: humanized antibodies with back-mutation
Method: as §1, §2

IL-21 induced p-STAT3 = experiment: Suppression of p-STAT in PBMC, IL-21; assay type: cell-based, human; conditions: antibody 10 μg/ml, compared to isotype control
Method: as §3

HaCaT cells [4] = experiment: ADCC assay on HaCaT cells with human PBMC; assay type: cell-based; conditions: 33 nM (5 μg/ml), vs isotype antibody
Method: as §4

γc proteins from chimpanzee, sequence (as listed by the source): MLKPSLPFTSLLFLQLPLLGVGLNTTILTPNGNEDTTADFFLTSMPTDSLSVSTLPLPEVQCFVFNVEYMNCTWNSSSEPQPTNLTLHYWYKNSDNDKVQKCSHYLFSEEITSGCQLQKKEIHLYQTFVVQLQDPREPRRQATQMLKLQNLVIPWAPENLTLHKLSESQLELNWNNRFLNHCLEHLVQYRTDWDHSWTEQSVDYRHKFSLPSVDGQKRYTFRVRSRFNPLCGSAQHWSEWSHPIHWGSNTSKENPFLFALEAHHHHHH

B1: hSM-05A: full-length humanized anti-γc antibody derived from SM-05A by framework patching (antibody, V domains shown)
VH: QVQLVQSGAEVLKPGASVKVSCKASGYTFTEYTMHWVKQARGQRLEWIGGIDPYNGGATYNQRFKGKATLTTDTSTSTAYMELRNLRSDDTAVYYCARRRLYYGNALDYWGQGTLVTVSS
VL: DIVMTQSPLSLPVTPGEQASISCRSSQSLVHSNGNTYLHWYLQKPGQSPQLLIYKVSSRFSGVPDRFSGSGSGTDFTLKISRVEAEDVGVYFCSQTTHVPFTFGSGTKLEIKR
With B1 the “inhibition of IFNγ secretion” value [1] was “comparable inhibition to IFNγ secretion to ritlecitinib”, the “ELISA binding to human γc” value (γc proteins from human) was “retained the binding affinity and specificity” and the “IL-15 induced p-STAT5, percentage of inhibition” value (IL-15 induced p-STAT5) was 100%. For the same molecule, the “epitope competition between hSM-05A and hSM-05E” value (human γc protein) was “could compete on a similar epitope on the human γc protein”, the “restimulation of anti-IgM induced cell death in presence of IL-4 or IL-21 (WST-8)” value (Ramos B cells) was “can restimulate anti-IgM induced cell death in a comparable level to ritlecitinib” and the “IL-7 induced p-STAT5, percentage of inhibition” value (IL-7 induced p-STAT5) was 94.17%. The CDC activity (HaCaT cells [2]) was “could not induce any ADCC nor CDC activities”, the “ELISA binding to chimpanzee γc” value [3] was “retained the binding affinity and specificity” and the “IL-21 induced p-STAT3, percentage of inhibition” value (IL-21 induced p-STAT3) was 82.80%. For the same molecule, the ADCC activity (HaCaT cells [4]) was “could not induce any ADCC nor CDC activities”.

B2: hSM-05E: full-length humanized anti-γc antibody derived from SM-05E by framework patching (antibody, V domains shown)
VH: B1 VH with Y54N, N55T, A58V, R63K, L101R, N105Y
VL: B1 VL with L29I, H39E, S58N, T96S, T102M
B2 was tested, and the “inhibition of IFNγ secretion” value [1] was “only offered weak suppression to two agents”, the “suppression of granzyme B secretion” value [1] was “only offered weak suppression to two agents” and the “ELISA binding to human γc” value (γc proteins from human) was “retained the binding affinity and specificity”. For the same molecule, the “IL-15 induced p-STAT5, percentage of inhibition” value (IL-15 induced p-STAT5) was 100%, the “epitope competition between hSM-05A and hSM-05E” value (human γc protein) was “could compete on a similar epitope on the human γc protein” and the “restimulation of anti-IgM induced cell death in presence of IL-4 or IL-21 (WST-8)” value (Ramos B cells) was “can restimulate anti-IgM induced cell death in a comparable level to ritlecitinib”. For the same molecule, the “IL-7 induced p-STAT5, percentage of inhibition” value (IL-7 induced p-STAT5) was 66.02%, the CDC activity (HaCaT cells [2]) was “could not induce any ADCC nor CDC activities” and the “ELISA binding to chimpanzee γc” value [3] was “retained the binding affinity and specificity”. For the same molecule, the “IL-21 induced p-STAT3, percentage of inhibition” value (IL-21 induced p-STAT3) was 100% and the ADCC activity (HaCaT cells [4]) was “could not induce any ADCC nor CDC activities”.
